Positions count from the first letter of the chain named. Numbers in names are those of the source. Where “and” joins values, the source holds several entries; their conditions need not be identical. Identical values can stand only once. Like-named read-outs stand apart in the source and are kept apart here. Blank lines part the entries; values can stand above or below the binder they belong to.
Columns and labels:
[1] = biological target: T1, recombinant human FGF23 (R179Q) (human, UniProt Q9GZV9 25-251); experiment: SPR, antibody captured on hIgG chip, human FGF23 analyte
T1 construct: also called rhFGF23(R179Q); hFGF23(R179Q)
T1 sequence (looked up): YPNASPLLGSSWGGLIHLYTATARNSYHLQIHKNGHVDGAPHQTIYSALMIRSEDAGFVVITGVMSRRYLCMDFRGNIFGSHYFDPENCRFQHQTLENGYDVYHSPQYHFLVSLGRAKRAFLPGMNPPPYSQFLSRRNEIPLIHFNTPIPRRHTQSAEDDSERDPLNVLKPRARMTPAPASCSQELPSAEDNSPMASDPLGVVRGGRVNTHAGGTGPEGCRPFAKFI

[2] = biological target: T2, cynomolgus monkey (Macaca fascicularis) FGF23 (R179Q) (cynomolgus monkey (Macaca fascicularis), UniProt Q9GZV9 25-251 (human entry), limits assumed); experiment: SPR, antibody captured on hIgG chip, cynoFGF23(R179Q) analyte, single cycle kinetics
T2 construct: also called cynoFGF23; cynoFGF23(R179Q)
T2 chain: T1 sequence (looked up) with D85N, Q92R, Q94W, Y108H, I149R, M195V, G219A, A224P
Protocol: Binding kinetics of 13 antibody variants shown in Table 19 were characterized against cynomolgus monkey (Macaca fascicularis) FGF23 (R179Q) (i.e., “cynoFGF23”) (SEQ ID NO: 372). Antibody variants were expressed at small scale (3 ml) and screened by SPR analysis at a single concentration (100 nM). Experimental setup of SPR analysis for CRC: SPR device—8K+; chip preparation—CM5 hIgG chip: channels—1-8; immobilization concentration—1.5 ug/ml; immobilization method—capture; flow rate—5 μl/min; contact time—60 s; running buffer—1×HBS-EP+pH 7.4; temperature—20° C.: flow rate—50 μl/min; association time—120 s; dissociation time—1800 s; antigen—cynoFGF23(R179Q): top concentration—0.1 μM, 9-pt 3-fold Single Cycle Kinetics.

[3] = biological target: T1, recombinant human FGF23 (R179Q); experiment: SPR, antibody captured on hIgG chip, rhFGF23(R179Q) analyte
[4] = biological target: T1, recombinant human FGF23 (R179Q); experiment: as above; remark: listed apart in the source
[5] = biological target: the molecule itself; experiment: X-ray crystal structure of the hFGF23(R179Q):burosumab Fab complex
Protocol: To further characterize the human FGF23-burosumab interaction, x-ray crystallographic study was carried out using fully glycosylated human FGF23 (R179Q) from HEK293S cell supernatant in complex with burosumab Fab fragments also expressed in HEK293S cells. Burosumab IgG heavy and light chains were subjected to papain digestion to separate Fc and Fab fragments, then Protein A to isolate Fab fragments of approximately 50 kDa, according to routine methods (Pierce™ Fab Preparation Kit, Thermo Scientific™, cat #!44985). Fully glycosylated human FGF23 (R179Q) and burosumab Fab fragments were incubated on ice for more than one hour (1:0.8 molar ratio) and the stable complex was isolated by size exclusion chromatography (SEC) followed by evaluation by SDS-PAGE. SEC fractions containing the complex were pooled, concentrated, and stored at −80° C.
Diffraction data was collected from a single crystal at the Advanced Photon Source (APS) synchrotron and processed using autoPROC (autoProc, XDS, POINTLESS, AIMLESS, CCP4, and STARANISO) (see Vonrhein C, Flensburg C, Keller P, Sharff A, Smart O, Paciorek W, Womack T, Bricogne G. Data processing and analysis with the autoPROC toolbox. Acta Crystallogr D Biol Crystallogr. 2011 April; 67(Pt 4):293-302. [doi:10.1107/S0907444911007773]). […]

KD ratio (variant antibody KD/burosumab KD) [1]: 2 | Kd [1]: 13.3 pM | KD ratio (variant antibody KD/burosumab KD) [2]: 1 | Kd [2]: 16 pM | Kd [3]: 13.3 pM | Ratio (variant antibody KD/burosumab KD) [3]: 2 | SA (surface activity) [3]: 90.4% | koff [3]: 0.000186 s⁻¹ | kon [3]: 1.4e+07 M⁻¹ s⁻¹ | Kd [4]: 13.3 pM and 14 pM and 18.3 pM | koff [4]: 0.000186 s⁻¹ and 0.000121 s⁻¹ and 0.000138 s⁻¹ | kon [4]: 1.4e+07 M⁻¹ s⁻¹ and 8.64e+06 M⁻¹ s⁻¹ and 7.57e+06 M⁻¹ s⁻¹
B1: UGX204 (antibody, human IgG1, kappa, V domains shown)
VH: QVQLVQSGAEVKKPGASVKVSCKASGYTFTNHYMHWVRQAPGQGLEWMGIINPISGSTENAQKFQGRVTMTRDTSTSTVYMELSSLRSEDTAVYYCARDIVDAFDFWGQGTMVTVSS
VL: AIQLTQSPSSLSASVGDRVTITCRASQGISSALVWYQQKPGKAPKLLIYDAESLESGVPSRFSGSGSGTDFTLTISSLQPEDFATYYCQQFNDYFTFGPGTKVDIKR
notes: also called HC:S59E, LC:S52E; S59E/S52E

KD ratio (variant antibody KD/burosumab KD) [1]: 4 | Kd [1]: 5.77 pM | KD ratio (variant antibody KD/burosumab KD) [2]: 3 | Kd [2]: 6.86 pM | Kd [3]: 5.77 pM | Ratio (variant antibody KD/burosumab KD) [3]: 4 | SA (surface activity) [3]: 89.5% | koff [3]: 6.31e-05 s⁻¹ | kon [3]: 1.09e+07 M⁻¹ s⁻¹ | Kd [4]: 6.58 pM and 5.77 pM | koff [4]: 7.03e-05 s⁻¹ and 6.31e-05 s⁻¹ | kon [4]: 1.07e+07 M⁻¹ s⁻¹ and 1.09e+07 M⁻¹ s⁻¹
B2: UGX144 (antibody, human IgG1, kappa, V domains shown)
VH: B1 VH with E59S
VL: B1 VL with E52S, Y94D
notes: also called LC:Y94D; Y94D

KD ratio (variant antibody KD/burosumab KD) [1]: 5 | Kd [1]: 4.07 pM | KD ratio (variant antibody KD/burosumab KD) [2]: 9 | Kd [2]: 2.57 pM | Kd [3]: 4.07 pM | Ratio (variant antibody KD/burosumab KD) [3]: 5 | SA (surface activity) [3]: 93.9% | koff [3]: 6.25e-05 s⁻¹ | kon [3]: 1.53e+07 M⁻¹ s⁻¹ | Kd [4]: 4.07 pM | Ratio (variant antibody KD/burosumab KD) [4]: 5 | SA (surface activity) [4]: 93.9% | koff [4]: 6.25e-05 s⁻¹ | kon [4]: 1.53e+07 M⁻¹ s⁻¹
B3: UGX205 (antibody, human IgG1, kappa, V domains shown)
VH: B1 VH
VL: B1 VL with E52S, Y94D
notes: also called HC:S59E, LC:Y94D; S59E/Y94D

KD ratio (variant antibody KD/burosumab KD) [1]: 3 | Kd [1]: 7.87 pM | KD ratio (variant antibody KD/burosumab KD) [2]: 3 | Kd [2]: 7.16 pM | Kd [3]: 7.87 pM | Ratio (variant antibody KD/burosumab KD) [3]: 3 | SA (surface activity) [3]: 108% | koff [3]: 4.92e-05 s⁻¹ | kon [3]: 6.25e+06 M⁻¹ s⁻¹ | Kd [4]: 6.62 pM and 7.87 pM and 10.9 pM | koff [4]: 5.72e-05 s⁻¹ and 4.92e-05 s⁻¹ and 8.37e-05 s⁻¹ | kon [4]: 8.64e+06 M⁻¹ s⁻¹ and 6.25e+06 M⁻¹ s⁻¹ and 7.69e+06 M⁻¹ s⁻¹
B4: UGX206 (antibody, human IgG1, kappa, V domains shown)
VH: B1 VH
VL: B1 VL with E52S, Y94E
notes: also called HC:S59E, LC:Y94E; S59E/Y94E

B5: human FGF23 (R179Q) (ligand, UniProt Q9GZV9 25-251, looked up)
chain: T1 sequence (looked up)
modifications: fully glycosylated (from HEK293S cells)
notes: also called hFGF23(R179Q); rhFGF23(R179Q)
binding result [5]: binds

Reference: patent US20260250371A1 (ULTRAGENYX PHARMACEUTICAL, published 2026)
